Patent US20210214444A1 (TAYU HUAXIA BIOTECH MEDICAL GROUP, published 2021)

Target: hPD-L1 (Fortebio Octet assay of Example 3) (human, UniProt Q9NZQ7 19-238, limits assumed)
Assay: BLI, Fortebio Octet; format not stated

Chain of hPD-L1 (Fortebio Octet assay of Example 3) (Q9NZQ7 19-238 limits assumed): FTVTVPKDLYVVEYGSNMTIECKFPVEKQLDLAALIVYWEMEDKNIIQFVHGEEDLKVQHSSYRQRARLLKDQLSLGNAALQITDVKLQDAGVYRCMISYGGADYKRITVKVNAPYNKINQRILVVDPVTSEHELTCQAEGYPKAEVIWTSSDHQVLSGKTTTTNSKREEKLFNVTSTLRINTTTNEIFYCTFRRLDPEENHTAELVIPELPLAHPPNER

koff: 2.72e-05 s⁻¹
B1: humanized anti-hPD-L1 antibody variant 2 (antibody, V domains shown)
VH: QVQLVQSGAEVKKPGASVKVSCKASGFNIKDTYMYWVRQAPGQGLEWMGRIDPANDNTKYAQKFQGRVTITADTSTSTAYMELSSLRSEDTAVYYCARAKNLLNYFDYWGQGTLVTVSS
VL: DIQMTQSPSSLSASVGDRVTITCRASQEISGYLSWLQQKPGKAPKRLIYATSTLQSGVPSRFSGSRSGTDYTLTISSLQPEDFATYYCLQYAIYPLTFGQGTKLEIKR
notes: Human IgG1; also called Humanized VH 1 + Humanized VL2; anti-PD-L1 IgG1
